Read-outs that look alike come from different tables or passages of the source. Where a SMILES comes first, the peptide text is derived from it. Where no end group is shown, it is not given here. The star is where a group is joined. 2Furoyl = O=C(c1ccco1)*; Butyryl = CCCC(=O)*
Key:
[1] = target: T1, ENL YEATS domain (His-ENL) (Homo sapiens, UniProt Q03111); assay: Biolayer interferometry (BLI) binding to ENL YEATS; settings: ratio KD,AF9 / KD,ENL
T1 construct: (aa 1−148) was cloned in pET19b; made in house; host or cells: E. coli BL21(DE3pLysS)
T1 sequence (Q03111 1-148): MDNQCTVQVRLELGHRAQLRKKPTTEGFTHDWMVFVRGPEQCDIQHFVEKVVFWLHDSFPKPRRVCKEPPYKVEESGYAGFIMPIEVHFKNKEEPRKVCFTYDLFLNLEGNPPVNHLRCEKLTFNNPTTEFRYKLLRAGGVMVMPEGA
Description: To test the inhibition potency of the two selected peptides for the ENL YEATS domain, ENL-S1 and ENL-S2 were chemically synthesized through solid-phase peptide synthesis (SPPS) and evaluated by an AlphaScreen assay. In this assay, a biotinylated H3K27cr peptide and a 6xHis-tagged ENL YEATS domain (His-ENL YEATS) were immobilized on PerkinElmer streptavidin donor and nickel-chelating (Ni-NTA) acceptor beads, respectively. The use of a His-ENL YEATS instead of the original AviSUMO-ENL YEATS construct in the assay prevents potential false positive results derived from ligands which bind to the SUMO protein but not to the ENL YEATS domain. […] We then assessed the binding affinity of two ligands for the ENL YEATS domain using biolayer interferometry (BLI). Briefly, His-ENL was immobilized onto Ni-NTA functionalized biosensors to measure the binding kinetics of target peptides at different concentrations. […] As a small peptide directly selected from a phage display library, this level of high potency was unexpected. […] However, shorter-than-10-mer linear peptides with nanomolar binding potency have rarely been directly selected from phage display libraries. One example was S2P03, a 7-mer peptide that has a KD value as 49 ± 9 nM to bind to SIRT2.[10] This peptide contained BuK and was identified also from a BuK-containing phage display library using the active site-directed ligand selection technique. Taken together, the two examples confirmed that utilizing phage display libraries incorporated with a ncAA serving as a ligand for a protein target for active site-directed ligand selection is a successful method for identifying ultrahigh potency ligands for epigenetic proteins including both enzymes and readers. For ENL-S1 and ENL-S2, their determined kon and koff values were 6.23 ± 0.07 × 10^4 M^–1 s^–1, […] and […], 5.54 ± 0.02 × 10^–3 s^–1, respectively. Compared to ENL-S2, ENL-S1 has faster binding to the ENL YEATS domain and slower release from it, indicating its potential long-term action on the ENL YEATS inhibition. […]
Biolayer Interferometry to Validate ENL Ligands:
His-ENL, His-AF9 (aa 1-149, EpiCypher), His-GAS41 (aa 15-160, EpiCypher), and YEATS2-His (aa 200-345, EpiCypher) were reconstituted in water and diluted into assay buffer (20mM Tris, 300 mM NaCl, pH 7.9) for immobilization onto Octet Ni-NTA biosensors (Sartorius). Lyophilized peptides were dissolved in DMF and diluted to designated concentrations in assay buffer. Biolayer interferometry assays were performed in 96 well plates (GreinerBio-One, polypropylene, flat-bottom) using an Octet Red96 System (Sartorius). Wells were filled with 200 μL of assay buffer, blocking buffer (assay buffer + 0.1% BSA), protein solution, peptide solution, regeneration solution, and reload solution. For immobilization, His-tagged proteins were immobilized onto Ni-NTA sensors at 20 for 600 s. Sensors were then dipped into blocking buffer for 180 s, assay […] buffer for 300 s, peptide solution for 300 s, and back to assay buffer for 300 s. If multiple samples were tested, Ni-NTA sensors can be reconditioned in regeneration (10 mM glycine, pH 1.7) solution followed by reload solution (10 mM NiCl2) for 30 and 60 s, respectively. Measurements were carried out at 30 °C. Data were analyzed within the ForteBio Data Analysis software. Data were processed by double subtracting ligand only and protein only reference wells and aligning the data to the beginning of the association. Then, global kinetic fit was performed for all sensogram curves with a 1:1 model. Steady state KD values were reported.
AlphaScreen Assay with Biotinylated-ENL-S1:
The AlphaScreen assay was carried out in 384-well plates. Manual assay setup was performed in a 40 uL reaction buffer (50 mM HEPES pH 7.4, 100 mM NaCl, 0.1% bovine serum albumin, and 0.05% CHAPS). 10 µL of varying concentrations of His-ENL YEATS (0-300 nM) and 10 µL of […]

[2] = target: T2, NanoLuc-ENL YEATS expressed in HEK293T cells (Homo sapiens, UniProt Q03111); assay: ENL-NanoBRET cellular target engagement assay with tracer SR-0813T; type: cell-based
T2 construct: The complementary DNA encoding ENL YEATS (aa 1-148) was cloned into pCDH-EF1-Nluc; expressed in transfected cells
T2 sequence (Q03111 1-148): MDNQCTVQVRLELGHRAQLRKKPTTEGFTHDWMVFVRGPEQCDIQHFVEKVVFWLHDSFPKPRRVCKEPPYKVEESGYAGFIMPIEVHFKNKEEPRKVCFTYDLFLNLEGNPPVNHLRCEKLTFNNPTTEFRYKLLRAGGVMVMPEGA
Description: For peptides developed for intracellular targets, a common concern is their cellular permeability to engage the targets. For the ENL YEATS domain that is a nuclear protein, its inhibitors will also need to translocate to the nucleus to exert their inhibition activities. […] We attached FITC to tENL-S1o to afford FITC-tENL-S1o that could be fluorescently imaged. […] Although results from this pilot study were very encouraging, the conjugated FITC could have assisted the cellular penetration process. A more accurate assay was needed for the use of unmodified peptides. In light of this, we proceeded to use a NanoBRET assay to evaluate whether our developed peptides could permeate into cells and engage the ENL YEATS domain in the cellular melieu.[46] The NanoBRET assay is an emerging cutting-edge technique that is robust and sensitive in assessing not just cellular permeability of a developed ligand but also the ligand engagement with its protein target in the cellular environment. A significant advantage of the NanoBRET assay over the fluorophore conjugation and other approaches is allowing intact ligands to be used. […] There are three components required to gauge the peptide inhibitory potency for ENL expressed in cells through NanoBRET assays: (1) an ENL YEATS-NanoLuc luciferase fusion protein, (2) a NanoLuc luciferase substrate, and (3) a fluorescent tracer that binds specifically and reversibly to the reader channel of ENL YEATS. […] The cellular potency of peptides can be determined through the decrease in BRET as test peptides engage the ENL YEATS domain and displace the tracer. […]
Meanwhile, we established a stable cell line for NanoLuc-ENL YEATS expression. The binding of SR-0813T to […] was also validated using a fluorescence polarization assay (Figure S16).
Using the developed ENL-NanoBRET assay, we then characterized the cellular potency of our developed peptidyl inhibitors. […] The apparent intracellular affinity of tENL-S1f was further evaluated by NanoBRET at various tracer concentrations (Figure 5D). […]
Fluorescence microscopy study with FITC-6AHX-tENL-S1o: […]

[3] = target: T3, 6xHis-tagged ENL YEATS domain (human, UniProt Q03111 1-148); assay: BLI; His-ENL immobilised on Ni-NTA biosensors, peptides in solution at different concentrations (set-up told for ENL YEATS; the other YEATS domains were analysed 'similarly')
T3 chain: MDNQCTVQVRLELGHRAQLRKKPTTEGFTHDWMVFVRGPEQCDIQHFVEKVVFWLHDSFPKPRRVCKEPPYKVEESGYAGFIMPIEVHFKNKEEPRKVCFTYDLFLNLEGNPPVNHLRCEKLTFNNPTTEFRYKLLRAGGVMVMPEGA

AF9 YEATS domain [4] = target: T4, AF9 YEATS domain (human, UniProt P42568 1-138); assay: AlphaScreen or HTRF; competition: AF9 YEATS and its corresponding acylated histone peptide; test peptide varied; n = 3
T4 chain: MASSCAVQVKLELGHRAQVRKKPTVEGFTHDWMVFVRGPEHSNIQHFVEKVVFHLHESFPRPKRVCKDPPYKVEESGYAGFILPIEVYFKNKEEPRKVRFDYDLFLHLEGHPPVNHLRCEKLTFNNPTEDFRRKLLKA

AF9 YEATS domain [5] = target: T4, AF9 YEATS domain
[6] = target: T3, 6xHis-tagged ENL YEATS domain; assay: AlphaScreen or HTRF; competition: biotinylated H3K27cr peptide on streptavidin donor beads, His-ENL YEATS on nickel-chelating (Ni-NTA) acceptor beads; test peptide varied; n = 3
AF9 YEATS domain [7] = target: T4, AF9 YEATS domain; assay: BLI; His-ENL immobilised on Ni-NTA biosensors, peptides in solution at different concentrations (set-up told for ENL YEATS; the other YEATS domains were analysed 'similarly')
[8] = target: T3, 6xHis-tagged ENL YEATS domain
[9] = target: T3, 6xHis-tagged ENL YEATS domain; assay: BLI
AF9 YEATS domain [10] = target: T4, AF9 YEATS domain; assay: BLI

Molecule: CC(=O)N[C@H](C(=O)N[C@@H](Cc1ccc(O)cc1)C(=O)N[C@@H](CS)C(=O)N[C@@H](Cc1ccc(O)cc1)C(=O)N[C@@H](CCCCNC(=O)c1ccco1)C(N)=O)C(C)C [tENL-S1f] (Ac-VYCYK(2Furoyl)-NH2)
- Selectivity (ENL:AF9) from BLI KD values [1]: 12.0 fold
- IC50 ([2]; 0.5 μM SR-0813T tracer, read-out: NanoBRET IC50): 4100 ± 1100 nM
- IC50 ([2]; 1.0 μM SR-0813T tracer, read-out: NanoBRET IC50): 4200 ± 1100 nM
- IC50 ([2]; 2.5 μM SR-0813T tracer, read-out: NanoBRET IC50, displacement of SR-0813T from NanoLuc-ENL): 6400 ± 1600 nM

B1: ENL-S1 (peptide)
chain: YDVYCYK(Butyryl)
- Kd [3]: 36.3 nM
- kon [3]: 62300 M⁻¹ s⁻¹
- fold lower potency (IC50) toward AF9 YEATS than toward ENL YEATS (AF9 YEATS domain [4]): 4 fold
- IC50 (AF9 YEATS domain [5]): 250 nM
- IC50 [6]: 63 nM

B2: tENL-S1f (peptide)
chain: Ac-VYCYK(2Furoyl)
- fold selectivity for ENL YEATS over AF9 (AF9 YEATS domain [7]): 12 fold
- decrease in qPCR of the ENL target genes HOXA9, MEIS1, MYB and MYC in MOLM-13 cells (endogenous ENL) treated with tENL-S1f at 10 and 50 μM [8]: 30%
- growth of MV4;11 cells (MLL-r leukemia line sensitive to ENL depletion; endogenous ENL) treated with tENL-S1f for 14 days [8]: 50%
- Kd [9]: 307 nM
- Kd (AF9 YEATS domain [10]): 3670 nM

— PMC11046469, “Leveraging a Phage-Encoded Noncanonical Amino Acid: A Novel Pathway to Potent and Selective Epigenetic Reader Protein Inhibitors” (ACS Central Science, 2024)
